Results on one molecule are retold here after patent US20170128490A1.

The experiment addresses RGD-recognizing receptors (on monocytes). The experiment can be described thus: cell-based or functional assay.

RGDS [small RGD peptides, containing the amino-acid sequence Arg-Gly-Asp-Ser] had a long-duration monocyte-platelet interactions (video analysis, flow) of 44 % decrease.
